T1: AfERG10A (Aspergillus fumigatus, UniProt B0XMC1)
T1 construct: gene erg10A; pGEX-6P1 GST tag cleaved by PreScission; E. coli BL21(DE3)/pLysS; homotetramer
T1 sequence (B0XMC1 36-433): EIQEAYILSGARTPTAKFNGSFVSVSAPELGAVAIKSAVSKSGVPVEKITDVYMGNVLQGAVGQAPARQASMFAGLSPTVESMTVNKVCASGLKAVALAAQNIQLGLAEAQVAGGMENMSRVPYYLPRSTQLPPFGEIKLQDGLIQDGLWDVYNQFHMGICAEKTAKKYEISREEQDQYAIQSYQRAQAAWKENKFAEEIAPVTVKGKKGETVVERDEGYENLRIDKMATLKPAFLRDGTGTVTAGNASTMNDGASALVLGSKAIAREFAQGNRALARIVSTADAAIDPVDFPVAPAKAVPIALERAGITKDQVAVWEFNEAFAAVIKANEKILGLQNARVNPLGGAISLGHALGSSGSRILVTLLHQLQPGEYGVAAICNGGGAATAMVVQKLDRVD


Experiments:
AfERG10A = biological target: T1, AfERG10A; assay: X-ray crystal structure of the complex, […] Å; settings: crystals from 0.1 M HEPES pH 7.0, 2 M ammonium sulfate with CoA; CoA binding site
[1] = substrate: CC(=O)CC(=O)SCCNC(=O)CCNC(=O)[C@H](O)C(C)(C)COP(=O)(O)OP(=O)(O)OC[C@H]1O[C@@H](n2cnc3c(N)ncnc32)[C@H](O)[C@@H]1OP(=O)(O)O; assay: Mg2+ method, degradative (thiolysis) reaction, steady-state kinetics; type: biochemical, Aspergillus fumigatus; settings: CoA co-substrate (60 μM in the mixture as printed), 50 mM Tris-HCl pH 8.1, 20 mM MgCl2, 40 mM KCl, 30°C
Source text: (§1) Mg2+ method, degradative (thiolysis) reaction, steady-state kinetics on AfERG10A

[2] = substrate: CC(C)(COP(=O)(O)OP(=O)(O)OC[C@H]1O[C@@H](n2cnc3c(N)ncnc32)[C@H](O)[C@@H]1OP(=O)(O)O)[C@@H](O)C(=O)NCCC(=O)NCCS; assay: as above; type: biochemical, Aspergillus fumigatus; settings: acetoacetyl-CoA co-substrate (10 μM in the mixture as printed), 50 mM Tris-HCl pH 8.1, 20 mM MgCl2, 40 mM KCl, 30°C
Source text: as §1

purified protein = substrate: CC(=O)SCCNC(=O)CCNC(=O)[C@H](O)C(C)(C)COP(=O)(O)OP(=O)(O)OC[C@H]1O[C@@H](n2cnc3c(N)ncnc32)[C@H](O)[C@@H]1OP(=O)(O)O; assay: purified protein; type: biochemical, Aspergillus fumigatus; settings: 50 mM Tris-HCl pH 7.4, 0.2 mM NADH, 0.5 mM DTT, 30°C
[3] = biological target: the molecule itself; assay: crystal structure; apo and CoA-complexed AfERG10A; sitting drop at room temperature, 0.1 M HEPES (pH 7.0), 2 M ammonium sulfate, in the absence or presence of CoA; refined to 2.4 Å; four molecules in one asymmetric unit

| Molecule | X-ray crystal structure of the complex, 2.4 Å (AfERG10A) | Km [1] [µM] | kcat [1] [s⁻¹] | Km [2] [µM] | kcat [2] [s⁻¹] | Km (purified protein) [µM] | kcat (purified protein) [s⁻¹] | stoichiometry N [3] |
| --- | --- | --- | --- | --- | --- | --- | --- | --- |
| CC(C)(COP(=O)(O)OP(=O)(O)OC[C@H]1O[C@@H](n2cnc3c(N)ncnc32)[C@H](O)[C@@H]1OP(=O)(O)O)[C@@H](O)C(=O)NCCC(=O)NCCS [CoA] | structures of apo- and CoA-complexed AfERG10A were determined |  |  |  |  |  |  |  |
| Aspergillus fumigatus acetyl-CoA acetyltransferase AfERG10A (residues 36 to 433) (enzyme, UniProt B0XMC1 36-433, looked up, AfERG10A (AFUB_000550), mitochondrial acetyl-CoA acetyltransferase of Aspergillus fumigatus, whole protein 433 amino acids; Cloned from cDNA into pGEX-6P1 with primers P13/P14; After PreScission cleavage a few vector residues probably remain at the N-terminus; Primer P13 carries a Lys codon (AAA) before GAG (Glu), so the construct may begin one residue earlier or have an added Lys; also called …) EIQEAYILSGARTPTAKFNGSFVSVSAPELGAVAIKSAVSKSGVPVEKITDVYMGNVLQGAVGQAPARQASMFAGLSPTVESMTVNKVCASGLKAVALAAQNIQLGLAEAQVAGGMENMSRVPYYLPRSTQLPPFGEIKLQDGLIQDGLWDVYNQFHMGICAEKTAKKYEISREEQDQYAIQSYQRAQAAWKENKFAEEIAPVTVKGKKGETVVERDEGYENLRIDKMATLKPAFLRDGTGTVTAGNASTMNDGASALVLGSKAIAREFAQGNRALARIVSTADAAIDPVDFPVAPAKAVPIALERAGITKDQVAVWEFNEAFAAVIKANEKILGLQNARVNPLGGAISLGHALGSSGSRILVTLLHQLQPGEYGVAAICNGGGAATAMVVQKLDRVD |  | 43 ± 9 | 3 ± 0.2 | 26 ± 5 | 5 ± 0.2 | 232 ± 49 | 7 ± 0.4 | 4 |
